Data from paper PMC5683061.

What was measured:
[1] = target: Ferredoxin:NADP+ oxidoreductase (FNR), C. reinhardtii, recombinant soluble (C. reinhardtii) (UniProt P53991)
[2] = target: Ferredoxin:NADP+ oxidoreductase (FNR), endogenous, complex-associated (C. reinhardtii (endogenous in strain cc124)) (UniProt P53991)

Substance: Ferredoxin 1 (FDX1), C. reinhardtii (natural protein)
- light-dependent NADPH production rate with FDX1 relative to FDX2 (FDX1/FDX2), PSI fractions with added soluble FNR (0.5 µM), 4 µM FDX [1]: 2.6 fold
- light-dependent NADPH production rate with FDX1 relative to FDX2 (FDX1/FDX2), PSI–FNR fractions (complex-associated FNR), 4 µM FDX [2]: 23 fold
